Laboratory results taken from US10941182 (Amgen, dated 2021).
Starred links: 1 amine or outer side, 2 acyl side, 3 side chain; linkers in the order of their positions; H or OH if unused. Non-standard residues stand in square brackets, D forms with d. Primed or numbered codes have the meaning given here. *: point of attachment. AC4Abu = α-carboxy-4-aminobutyric acid, O=C(C(CCN[*:1])C(=O)[*:3])[*:2]; dBip = N[C@H](Cc1ccc(-c2ccccc2)cc1)C(=O)O; Oic = O=C(O)[C@@H]1C[C@@H]2CCCC[C@@H]2N1; Phe(4-Cl) = N[C@@H](Cc1ccc(Cl)cc1)C(=O)O; Phe(4-I) = N[C@@H](Cc1ccc(I)cc1)C(=O)O; γGlu = O=C(O)[C@H](CCC(=O)[*:2])N[*:1]; d(β3hF) = N[C@@H](CC(=O)O)Cc1ccccc1; NMeR = CN[C@@H](CCCNC(=N)N)C(=O)O; Palmitoyl = CCCCCCCCCCCCCCCC(=O)*; Tridecanoyl = CCCCCCCCCCCCC(=O)*; hArg = N=C(N)NCCCC[C@H](N)C(=O)O; β3hF = N[C@H](CC(=O)O)Cc1ccccc1; Cha = N[C@@H](CC1CCCCC1)C(=O)O; NMeL = CN[C@@H](CC(C)C)C(=O)O; AC4Abu″ = not defined here; β3hP = O=C(O)C[C@@H]1CCCN1; αMeS = C[C@](N)(CO)C(=O)O; Nle = CCCC[C@H](N)C(=O)O; AMEF = not defined here; Deg = CCC(N)(CC)C(=O)O; AEEA = NCCOCCOCC(=O)O

T1: human APJ receptor (human, UniProt P35414 1-380)
T1 sequence (looked up): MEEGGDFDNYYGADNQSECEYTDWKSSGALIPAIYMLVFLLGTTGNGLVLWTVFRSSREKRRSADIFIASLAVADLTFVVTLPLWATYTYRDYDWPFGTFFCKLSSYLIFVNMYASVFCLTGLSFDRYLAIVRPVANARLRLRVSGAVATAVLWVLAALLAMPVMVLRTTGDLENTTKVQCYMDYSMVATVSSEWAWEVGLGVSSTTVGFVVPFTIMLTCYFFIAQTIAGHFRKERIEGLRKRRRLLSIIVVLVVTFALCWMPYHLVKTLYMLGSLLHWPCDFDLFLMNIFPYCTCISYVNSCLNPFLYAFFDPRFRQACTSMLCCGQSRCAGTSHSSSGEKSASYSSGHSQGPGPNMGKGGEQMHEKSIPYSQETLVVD

T2: rat APJ receptor (rat, UniProt Q9JHG3 1-377)
T2 sequence (looked up): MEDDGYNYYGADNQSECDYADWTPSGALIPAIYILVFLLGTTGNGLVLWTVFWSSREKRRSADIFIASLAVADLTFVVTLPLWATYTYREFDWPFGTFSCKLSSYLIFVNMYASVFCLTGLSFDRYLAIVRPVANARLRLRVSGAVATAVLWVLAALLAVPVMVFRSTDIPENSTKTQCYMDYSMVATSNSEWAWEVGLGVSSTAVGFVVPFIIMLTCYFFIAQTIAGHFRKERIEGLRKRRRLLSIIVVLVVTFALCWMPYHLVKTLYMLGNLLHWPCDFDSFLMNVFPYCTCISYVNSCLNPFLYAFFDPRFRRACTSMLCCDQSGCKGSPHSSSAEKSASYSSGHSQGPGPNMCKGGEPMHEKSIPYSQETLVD

T3: human APJ receptor (human, UniProt P35414 1-380)
T3 sequence (looked up): T1 sequence (looked up)

T4: rat APJ receptor (rat, UniProt Q9JHG3 1-377)
T4 sequence (looked up): T2 sequence (looked up)

B1: SEQ ID NO: 84 (peptide)
peptide: Ac-[hArg][dR]Q[hArg]P[dR][NMeL]SHKE[Oic][Phe(4-I)]P[dBip]-OH
SMILES: CC(=O)N[C@@H](CCCCNC(=N)N)C(=O)N[C@H](CCCNC(=N)N)C(=O)N[C@@H](CCC(N)=O)C(=O)N[C@@H](CCCCNC(=N)N)C(=O)N1CCC[C@H]1C(=O)N[C@H](CCCNC(=N)N)C(=O)N(C)[C@@H](CC(C)C)C(=O)N[C@@H](CO)C(=O)N[C@@H](Cc1c[nH]cn1)C(=O)N[C@@H](CCCCN)C(=O)N[C@@H](CCC(=O)O)C(=O)N1[C@H](C(=O)N[C@@H](Cc2ccc(I)cc2)C(=O)N2CCC[C@H]2C(=O)N[C@H](Cc2ccc(-c3ccccc3)cc2)C(=O)O)C[C@@H]2CCCC[C@@H]21
B2: SEQ ID NO: 87 (peptide)
peptide: Ac-[hArg][dR]Q[hArg]P[dR][NMeL]SHKG[Oic][Phe(4-I)]E[dBip]-OH
SMILES: CC(=O)N[C@@H](CCCCNC(=N)N)C(=O)N[C@H](CCCNC(=N)N)C(=O)N[C@@H](CCC(N)=O)C(=O)N[C@@H](CCCCNC(=N)N)C(=O)N1CCC[C@H]1C(=O)N[C@H](CCCNC(=N)N)C(=O)N(C)[C@@H](CC(C)C)C(=O)N[C@@H](CO)C(=O)N[C@@H](Cc1c[nH]cn1)C(=O)N[C@@H](CCCCN)C(=O)NCC(=O)N1[C@H](C(=O)N[C@@H](Cc2ccc(I)cc2)C(=O)N[C@@H](CCC(=O)O)C(=O)N[C@H](Cc2ccc(-c3ccccc3)cc2)C(=O)O)C[C@@H]2CCCC[C@@H]21
B3: SEQ ID NO: 79 (peptide)
peptide: Ac-[hArg][dR]Q[hArg]PE[NMeL]SHKG[Oic][Phe(4-I)]P[dBip]-OH
SMILES: CC(=O)N[C@@H](CCCCNC(=N)N)C(=O)N[C@H](CCCNC(=N)N)C(=O)N[C@@H](CCC(N)=O)C(=O)N[C@@H](CCCCNC(=N)N)C(=O)N1CCC[C@H]1C(=O)N[C@@H](CCC(=O)O)C(=O)N(C)[C@@H](CC(C)C)C(=O)N[C@@H](CO)C(=O)N[C@@H](Cc1c[nH]cn1)C(=O)N[C@@H](CCCCN)C(=O)NCC(=O)N1[C@H](C(=O)N[C@@H](Cc2ccc(I)cc2)C(=O)N2CCC[C@H]2C(=O)N[C@H](Cc2ccc(-c3ccccc3)cc2)C(=O)O)C[C@@H]2CCCC[C@@H]21
B4: SEQ ID NO: 82 (peptide)
peptide: Ac-[hArg][dR]Q[hArg]P[dR][NMeL]SEKG[Oic][Phe(4-I)]P[dBip]-OH
SMILES: CC(=O)N[C@@H](CCCCNC(=N)N)C(=O)N[C@H](CCCNC(=N)N)C(=O)N[C@@H](CCC(N)=O)C(=O)N[C@@H](CCCCNC(=N)N)C(=O)N1CCC[C@H]1C(=O)N[C@H](CCCNC(=N)N)C(=O)N(C)[C@@H](CC(C)C)C(=O)N[C@@H](CO)C(=O)N[C@@H](CCC(=O)O)C(=O)N[C@@H](CCCCN)C(=O)NCC(=O)N1[C@H](C(=O)N[C@@H](Cc2ccc(I)cc2)C(=O)N2CCC[C@H]2C(=O)N[C@H](Cc2ccc(-c3ccccc3)cc2)C(=O)O)C[C@@H]2CCCC[C@@H]21
B5: SEQ ID NO: 81 (peptide)
peptide: Ac-[hArg][dR]Q[hArg]P[dR][NMeL]EHKG[Oic][Phe(4-I)]P[dBip]-OH
SMILES: CC(=O)N[C@@H](CCCCNC(=N)N)C(=O)N[C@H](CCCNC(=N)N)C(=O)N[C@@H](CCC(N)=O)C(=O)N[C@@H](CCCCNC(=N)N)C(=O)N1CCC[C@H]1C(=O)N[C@H](CCCNC(=N)N)C(=O)N(C)[C@@H](CC(C)C)C(=O)N[C@@H](CCC(=O)O)C(=O)N[C@@H](Cc1c[nH]cn1)C(=O)N[C@@H](CCCCN)C(=O)NCC(=O)N1[C@H](C(=O)N[C@@H](Cc2ccc(I)cc2)C(=O)N2CCC[C@H]2C(=O)N[C@H](Cc2ccc(-c3ccccc3)cc2)C(=O)O)C[C@@H]2CCCC[C@@H]21
B6: SEQ ID NO: 83 (peptide)
peptide: Ac-[hArg][dR]Q[hArg]P[dR][NMeL]SHEG[Oic][Phe(4-I)]P[dBip]-OH
SMILES: CC(=O)N[C@@H](CCCCNC(=N)N)C(=O)N[C@H](CCCNC(=N)N)C(=O)N[C@@H](CCC(N)=O)C(=O)N[C@@H](CCCCNC(=N)N)C(=O)N1CCC[C@H]1C(=O)N[C@H](CCCNC(=N)N)C(=O)N(C)[C@@H](CC(C)C)C(=O)N[C@@H](CO)C(=O)N[C@@H](Cc1c[nH]cn1)C(=O)N[C@@H](CCC(=O)O)C(=O)NCC(=O)N1[C@H](C(=O)N[C@@H](Cc2ccc(I)cc2)C(=O)N2CCC[C@H]2C(=O)N[C@H](Cc2ccc(-c3ccccc3)cc2)C(=O)O)C[C@@H]2CCCC[C@@H]21
B7: Apelin polypeptide SEQ ID NO: 415 (peptide)
peptide: Tridecanoyl-[AC4Abu][AEEA][AEEA]QRP[NMeR][Cha]SHKG[Deg][Nle]P[Phe(4-Cl)]-OH
SMILES: CCCCCCCCCCCCC(=O)NCCC(C(=O)O)C(=O)NCCOCCOCC(=O)NCCOCCOCC(=O)N[C@@H](CCC(N)=O)C(=O)N[C@@H](CCCNC(=N)N)C(=O)N1CCC[C@H]1C(=O)N(C)[C@@H](CCCNC(=N)N)C(=O)N[C@@H](CC1CCCCC1)C(=O)N[C@@H](CO)C(=O)N[C@@H](Cc1c[nH]cn1)C(=O)N[C@@H](CCCCN)C(=O)NCC(=O)NC(CC)(CC)C(=O)N[C@@H](CCCC)C(=O)N1CCC[C@H]1C(=O)N[C@@H](Cc1ccc(Cl)cc1)C(=O)O
B8: Apelin polypeptide SEQ ID NO: 377 (peptide)
peptide: Tridecanoyl-[γGlu][AEEA][AEEA][dQ]RP[NMeR][Cha]SHKG[Oic][Nle]P[Phe(4-Cl)]-OH
SMILES: CCCCCCCCCCCCC(=O)N[C@@H](CCC(=O)NCCOCCOCC(=O)NCCOCCOCC(=O)N[C@H](CCC(N)=O)C(=O)N[C@@H](CCCNC(=N)N)C(=O)N1CCC[C@H]1C(=O)N(C)[C@@H](CCCNC(=N)N)C(=O)N[C@@H](CC1CCCCC1)C(=O)N[C@@H](CO)C(=O)N[C@@H](Cc1c[nH]cn1)C(=O)N[C@@H](CCCCN)C(=O)NCC(=O)N1[C@H](C(=O)N[C@@H](CCCC)C(=O)N2CCC[C@H]2C(=O)N[C@@H](Cc2ccc(Cl)cc2)C(=O)O)C[C@@H]2CCCC[C@@H]21)C(=O)O
B9: Apelin polypeptide SEQ ID NO: 379 (peptide)
peptide: Tridecanoyl-[γGlu][AEEA][AEEA]QRP[NMeR][Cha]SHKG[Oic][Nle]P[β3hF]-OH
SMILES: CCCCCCCCCCCCC(=O)N[C@@H](CCC(=O)NCCOCCOCC(=O)NCCOCCOCC(=O)N[C@@H](CCC(N)=O)C(=O)N[C@@H](CCCNC(=N)N)C(=O)N1CCC[C@H]1C(=O)N(C)[C@@H](CCCNC(=N)N)C(=O)N[C@@H](CC1CCCCC1)C(=O)N[C@@H](CO)C(=O)N[C@@H](Cc1c[nH]cn1)C(=O)N[C@@H](CCCCN)C(=O)NCC(=O)N1[C@H](C(=O)N[C@@H](CCCC)C(=O)N2CCC[C@H]2C(=O)N[C@H](CC(=O)O)Cc2ccccc2)C[C@@H]2CCCC[C@@H]21)C(=O)O

Biological target: T1, human APJ receptor
Assay: cell-based or functional assay

Point of comparison: B1, “EC50 Human APJ Receptor” value 18200 pM. Against it:
- Palmitoyl-[AC4Abu″][AEEA][AEEA][dQ]RP[NMeR][Cha]SHKG[Oic][Nle]P[AMEF]-OH (reading uncertain) [SEQ ID NO: 606] — 59-fold lower, 307 pM
- Ac-[hArg]Q[hArg]P[NMeR][Cha]SHKG[Oic][Nle]P[Phe(4-Cl)]-OH [SEQ ID NO: 60] — 81-fold lower, 224 pM
- XXXQRPRLSHKGPXPF ({hexanoyl}[AC4Abu][Aeea][Aeea]QRP[NMeArg]LSHKGP[Nle]P[4-Cl-F]{COOH}) [SEQ ID NO: 492] — 490-fold lower, 37.5 pM
- Ac-[hArg]EQ[hArg]P[dR][NMeL]SHKG[Oic][Phe(4-I)]P[dBip]-OH [SEQ ID NO: 76] — 9.9-fold lower, 1840 pM
- B2 — 2.9-fold higher, 52600 pM
- B3 — 27-fold lower, 678 pM
- B4 — within 1.5-fold, 23200 pM
- Palmitoyl-[AC4Abu″][AEEA][AEEA][dQ]RP[NMeR][Cha][αMeS]HKG[Oic][Nle][β3hP][d(β3hF)]-OH (reading uncertain) [SEQ ID NO: 642] — 55-fold lower, 332 pM
- B5 — 4.6-fold higher, 83800 pM
- B6 — 3-fold higher, 54500 pM
- XXXQRPRLSHKGPXPF ({Acetyl-NH}[AC4Abu][Aeea][Aeea]QRP[NMeArg]LSHKGP[Nle]P[4-Cl-F]{COOH}) [SEQ ID NO: 88] — 83-fold lower, 220 pM
- XXXQRPRLSHKGPXPF ({Decanoyl}[AC4Abu][Aeea][Aeea]QRP[NMeArg]LSHKGP[Nle]P[4-Cl-F]{COOH}) [SEQ ID NO: 494] — 820-fold lower, 22.1 pM

Biological target: T2, rat APJ receptor
Assay: cell-based or functional assay

Point of comparison: B8, “EC50 Rat APJ Receptor (GTPγS assay)” value 0.447 nM. Against it:
- B7 — 9-fold higher, 4.01 nM
- B9 — 19-fold higher, 8.38 nM

Biological target: T3, human APJ receptor
Assay: cell-based or functional assay

Point of comparison: B7, “EC50 Human APJ Receptor (GTPγS assay)” value 3.92 nM. Against it:
- B8 — 10-fold lower, 0.388 nM
- B9 — 1.9-fold higher, 7.52 nM

Biological target: T4, rat APJ receptor
Assay: cell-based or functional assay

Point of comparison: B3, “EC50 Rat APJ Receptor” value 0.000341 µM. Against it:
- Ac-[hArg]Q[hArg]P[NMeR][Cha]SHKG[Oic][Nle]P[Phe(4-Cl)]-OH [SEQ ID NO: 60] — 13-fold higher, 0.00448 µM
- B1 — 260-fold higher, 0.0893 µM
- Ac-[hArg]EQ[hArg]P[dR][NMeL]SHKG[Oic][Phe(4-I)]P[dBip]-OH [SEQ ID NO: 76] — 2.9-fold higher, 0.000994 µM
- B2 — 170-fold higher, 0.0589 µM
- B4 — 160-fold higher, 0.0539 µM
- B5 — 210-fold higher, 0.0706 µM
- B6 — 250-fold higher, 0.0847 µM
- XXXQRPRLSHKGPXPF ({Acetyl-NH}[AC4Abu][Aeea][Aeea]QRP[NMeArg]LSHKGP[Nle]P[4-Cl-F]{COOH}) [SEQ ID NO: 88] — within 1.5-fold, 0.000388 µM
